Results: PMC12395305 (ACS Central Science, 2025)

Target: T1, green fluorescent protein (Aequorea victoria, engineered EGFP-type …)
T1 construct: green fluorescent protein; pI 5.4; also called GFP; GFP-wt; source: produced by the authors; expression and purification in the Supplementary Methods
Experiment: SPR; αGFP nanobody variants and GFP; constants in Table S1; format and conditions not shown
Conditions: both partners purified

fold reduction of affinity against the wild type: 25 fold
B1: αGFP-S54C (VHH)
VHH: QVQLVESGGALVQPGGSLRLSCAASGFPVNRYSMRWYRQAPGKEREWVAGMSCAGDRSSYEDSVKGRFTISRDDARNTVYLQMNSLKPEDTAVYYCNVNVGFEYWGQGTQVTVSS
notes: as the chain of m1 (nanobody chain of PDB 3OGO) with S54C; In the functional rows it carries linker 3c-rho on C54 (PEABS αGFP-S54-3c-rho); also called cysteine mutant; αGFP-S54C nanobody; source: bacterial expression vector, expressed and purified
